Molecular target: IgE-Fc(E289C)_BirA, terbium chelate labelled, biotinylated, mixed with Alexa488 labelled streptavidin (human), P01854
Experiment: cell-based or functional assay

Sequence of IgE-Fc(E289C)_BirA, terbium chelate labelled, biotinylated, mixed with Alexa488 labelled streptavidin (human), P01854 (P01854 other isoform, or with tags, fused parts or gaps, stated change not applied): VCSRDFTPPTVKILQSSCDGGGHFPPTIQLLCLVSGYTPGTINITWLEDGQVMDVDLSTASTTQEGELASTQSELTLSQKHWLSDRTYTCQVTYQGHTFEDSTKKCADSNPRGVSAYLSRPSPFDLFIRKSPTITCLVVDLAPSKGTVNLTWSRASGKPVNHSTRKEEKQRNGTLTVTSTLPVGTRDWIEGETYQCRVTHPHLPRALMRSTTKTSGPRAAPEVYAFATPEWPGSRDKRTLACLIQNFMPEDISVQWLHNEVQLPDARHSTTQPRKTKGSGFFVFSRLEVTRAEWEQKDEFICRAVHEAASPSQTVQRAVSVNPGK

normalised FRET, mean, at [Fab] 0.152 nM: 1
normalised FRET, mean, at [Fab] 0.45 nM: 0.2
normalised FRET, mean, at [Fab] 1.37 nM: 1.55
normalised FRET, mean, at [Fab] 4.4 nM: 0.1
normalised FRET, mean, at [Fab] 12.3 nM: 2
normalised FRET, mean, at [Fab] 37.03 nM: 9.68
normalised FRET, mean, at [Fab] 111 nM: 28.8
normalised FRET, mean, at [Fab] 333 nM: 39.3
normalised FRET, mean, at [Fab] 1000 nM: 43.4
normalised FRET, mean, at [Fab] 3000 nM: 41
B1: Fab7 (anti-human IgE Fab, human IgG1 Fab format) (Fab)
heavy: QVQLQQSGPGLVKPSQTLSLTCGISGDSVSSNSAAWNWLRQSPSRGLEWLGRTYYRSKWYNDYAVSMKSRITINPDTSRNQFSLQLNSVTPEDTAVYYCARDGEISYDYYYYGMDVWGRGTLVTVSSASTKGPSVFPLAPSSKSTSGGTAALGCLVKDYFPEPVTVSWNSGALTSGVHTFPAVLQSSGLYSLSSVVTVPSSSLGTQTYICNVNHKPSNTKVDKKVEPKSC
light: not shown
modifications: here or on the partner: thiol reactive terbium chelate on the Cys of E289C; biotin on the C-terminal BirA recognition motif (carrying Alexa488 labelled streptavidin)
